# Measurements reported in patent publication US20110104152A1 (Genentech, published 2011).
# T1: FGFR4-Fc (recombinant polypeptide comprising a human FGFR4 extracellular domain fused to a human IgG1 Fc … (human, UniProt P22455 22-369))
# T1 construct: extracellular domain; Bought reagent; also called FGFR4 fused to Fc fragment; catalog no; 685-FR-050, R&D Systems; not shown: human IgG1 Fc fragment
# T1 sequence (looked up): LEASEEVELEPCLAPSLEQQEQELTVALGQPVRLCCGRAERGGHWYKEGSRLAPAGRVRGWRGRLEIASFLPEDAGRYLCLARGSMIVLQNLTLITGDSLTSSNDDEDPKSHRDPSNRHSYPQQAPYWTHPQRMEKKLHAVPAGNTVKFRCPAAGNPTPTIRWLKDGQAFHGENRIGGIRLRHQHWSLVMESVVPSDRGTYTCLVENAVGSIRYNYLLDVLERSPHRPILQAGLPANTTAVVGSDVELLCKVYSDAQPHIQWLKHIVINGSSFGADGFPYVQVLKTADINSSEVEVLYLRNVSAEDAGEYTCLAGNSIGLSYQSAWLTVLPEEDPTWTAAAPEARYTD
# Key:
# [1] = target: human FGFR1c polypeptide expressed in transfected rat L6 myoblasts (human, UniProt P11362 22-822); test: cell-based or functional assay
# [2] = target: human FGFR4 polypeptide expressed in transfected rat L6 myoblasts (human, UniProt P22455 22-802); test: cell-based or functional assay
# [3] = target: T1, FGFR4-Fc (recombinant polypeptide …); test: ELISA, FGFR-Fc captured by anti-human IgG-Fc antibody, 2 µg/mL heparin, no Klotho-beta
# Description: Monoclonal antibodies specific for human IgG-Fc fragment (Jackson ImmunoResearch, West Grove, Pa., USA) were immobilized in the wells of Maxisorp™ flat-bottom 96-well plates (Nunc, Thermo Fisher Scientific, Rochester, N.Y.) by overnight incubation with 100 μl per well of 2 μg/ml antibody solution. Each well was then incubated with either 1 μg/ml of FGFR4—Fc (a recombinant polypeptide comprising a human FGFR4 extracellular domain fused to a human IgG₁ Fc fragment; catalog no. 685-FR-050, R&D Systems, Inc., Minneapolis, Minn.) or 1 μg/ml FGFR1c-Fc (a recombinant polypeptide comprising a human FGFR1c extracellular domain fused to a human IgG₁ Fc fragment; catalog no. 658-FR-050, R&D Systems).
# The surface-immobilized FGFR4-Fc or FGFR1c-Fc polypeptides were incubated for 1 hr with native human FGF19-Flag polypeptide with a C-terminal epitope tag (See FGF19-Flag in Table 10, SEQ ID NO:237) at concentrations of 1 μg/mL, 0.4 μg/mL, 0.16 μg/mL, 0.064 μg/mL, 0.0256 μg/mL, 0.004096 μg/mL or 0.0016384 μg/mL, each with 2 μg/mL heparin, to allow binding of the FGF19 polypeptide to the receptor domain. […]
# Sequence of human FGFR1c polypeptide expressed in transfected rat L6 myoblasts (P11362 22-822): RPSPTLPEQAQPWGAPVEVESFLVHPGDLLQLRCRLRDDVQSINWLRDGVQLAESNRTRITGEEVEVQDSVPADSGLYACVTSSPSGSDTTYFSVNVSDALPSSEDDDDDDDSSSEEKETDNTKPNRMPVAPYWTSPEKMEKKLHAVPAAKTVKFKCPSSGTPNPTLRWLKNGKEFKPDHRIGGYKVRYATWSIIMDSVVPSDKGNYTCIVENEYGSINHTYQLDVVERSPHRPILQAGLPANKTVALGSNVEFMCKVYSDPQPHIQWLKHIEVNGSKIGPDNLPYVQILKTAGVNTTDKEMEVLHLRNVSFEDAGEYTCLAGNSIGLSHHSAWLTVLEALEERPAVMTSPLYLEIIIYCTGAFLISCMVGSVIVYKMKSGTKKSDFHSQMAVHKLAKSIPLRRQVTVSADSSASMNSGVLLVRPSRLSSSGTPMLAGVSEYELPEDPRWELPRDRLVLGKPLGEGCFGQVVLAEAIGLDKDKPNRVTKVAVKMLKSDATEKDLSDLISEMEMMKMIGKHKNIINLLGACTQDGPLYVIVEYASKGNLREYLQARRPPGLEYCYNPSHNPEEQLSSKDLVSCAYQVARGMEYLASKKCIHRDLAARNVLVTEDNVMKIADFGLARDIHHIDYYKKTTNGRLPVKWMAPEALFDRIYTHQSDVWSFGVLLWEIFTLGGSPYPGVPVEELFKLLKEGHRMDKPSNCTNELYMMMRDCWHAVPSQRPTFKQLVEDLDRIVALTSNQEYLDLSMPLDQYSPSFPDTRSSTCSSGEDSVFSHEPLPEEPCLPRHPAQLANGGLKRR
binder,measurement,setting,value
"chimeric FGF19 polypeptide cFGF21/19-2/Flag (ligand, also called chimeric FGF19-Flag polypeptide; FGF19v) HPIPDSSPLLQFGGQVRQRYLYTSGPHGLSSCFLRIRADGVVDCARGQSAHSLLEIKAVALRTVAIKGVHSVRYLCMGADGKMQGLLQYSEEDCAFEEEIRPDGYNVYRSEKHRLPVSLSSAKQRQLYKNRGFLPLSHFLPMLPMVPEEPEDLRGHLESDMFSSPLETDSMDPFGLVTGLEAVRSPSFEKDYKDDDDK","EC50 of dose-dependent activation of luciferase (GAL4-Elk1 reporter), L6 cells with KLB and FGFR1c",[1],0.0227 µg/mL
same,"EC50 of dose-dependent activation of luciferase (GAL4-Elk1 reporter), L6 cells with FGFR4 and KLB",[2],0.269 µg/mL
same,binding result,[3],no binding (tested: 1 µg/mL (highest concentration tested))
